Experimental data: patent US20090181019A1

Target: IL-1 receptor (human) (UniProt P14778)
Test: cell-based or functional assay

UniProt P14778, sequence (P14778 18-569): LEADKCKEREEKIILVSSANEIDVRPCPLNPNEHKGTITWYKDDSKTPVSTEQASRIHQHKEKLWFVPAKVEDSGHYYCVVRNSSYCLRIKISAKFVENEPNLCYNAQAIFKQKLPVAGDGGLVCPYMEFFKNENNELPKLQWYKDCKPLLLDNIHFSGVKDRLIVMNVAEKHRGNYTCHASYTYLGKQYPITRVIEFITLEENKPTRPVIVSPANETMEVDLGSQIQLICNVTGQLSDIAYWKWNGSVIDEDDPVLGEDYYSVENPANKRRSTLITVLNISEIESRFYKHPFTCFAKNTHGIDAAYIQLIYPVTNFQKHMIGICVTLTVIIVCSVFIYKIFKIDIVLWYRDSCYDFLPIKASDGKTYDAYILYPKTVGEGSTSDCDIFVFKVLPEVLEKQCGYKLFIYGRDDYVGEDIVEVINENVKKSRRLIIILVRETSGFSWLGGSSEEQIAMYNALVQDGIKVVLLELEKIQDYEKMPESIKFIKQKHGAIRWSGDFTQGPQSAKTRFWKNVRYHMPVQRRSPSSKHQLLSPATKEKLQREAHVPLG

“Kineret® (anakinra) (from UniProt P18510 26-177) (ligand)” gave an IC50, inhibition of IL-1β stimulated release of IL-8 in human whole blood (100 pM rhIL-1β, IL-8 ELISA) of 53.4 pM.
